Numbering of substitutions follows the chain as printed. Numbers in names are those of the source.
B1: K66N H79K P84L S103T E110A D123N L124M E128G V138E: Gaussia luciferase mutant (protein)
chain: MGVKVLFALICIAVAEAKPTENNEDFNIVAVASNFATTDLDADRGKLPGKKLPLEVLKEMEANARNAGCTRGCLICLSKIKCTLKMKKFIPGRCHTYEGDKETAQGGIGAAIVDIPEIPGFKNMEPMGQFIAQVDLCEDCTTGCLKGLANVQCSDLLKKWLPQRCATFASKIQGQVDKIKGAGGD
modifications: SIGNAL (1)..(17)
notes: Gaussia luciferase mutant
B2: K66N P84L E102K E110P D123N: Gaussia luciferase mutant (protein)
chain: B1 chain with K79H, E102K, T103S, A110P, M124L, G128E, E138V
modifications: SIGNAL (1)..(17)
notes: Gaussia luciferase mutant
B3: K66R E102D E110P V138D: Gaussia luciferase mutant (protein)
chain: B1 chain with N66R, K79H, L84P, E102D, T103S, A110P, N123D, M124L, G128E, E138D
modifications: SIGNAL (1)..(17)
notes: Gaussia luciferase mutant
B4: K66R P84A E102A S103I A104G E110A: Gaussia luciferase mutant (protein)
chain: B1 chain with N66R, K79H, L84A, E102A, T103I, A104G, N123D, M124L, G128E, E138V
modifications: SIGNAL (1)..(17)
notes: Gaussia luciferase mutant
B5: K66R E102K E110G D123N V138D: Gaussia luciferase mutant (protein)
chain: B1 chain with N66R, K79H, L84P, E102K, T103S, A110G, M124L, G128E, E138D
modifications: SIGNAL (1)..(17)
notes: Gaussia luciferase mutant
B6: K66R P84A E102S S103I A104G E110A L124M V138E: Gaussia luciferase mutant (protein)
chain: B1 chain with N66R, K79H, L84A, E102S, T103I, A104G, N123D, G128E
modifications: SIGNAL (1)..(17)
notes: Gaussia luciferase mutant
B7: P84A E102S S103T A104G E110A L124M V138E: Gaussia luciferase mutant (protein)
chain: B1 chain with N66K, K79H, L84A, E102S, A104G, N123D, G128E
modifications: SIGNAL (1)..(17)
notes: Gaussia luciferase mutant
B8: P84A E102A S103T E110A V138D: Gaussia luciferase mutant (protein)
chain: B1 chain with N66K, K79H, L84A, E102A, N123D, M124L, G128E, E138D
modifications: SIGNAL (1)..(17)
notes: Gaussia luciferase mutant
B9: K66R P84L E102D S103T E110A V138E: Gaussia luciferase mutant (protein)
chain: B1 chain with N66R, K79H, E102D, N123D, M124L, G128E
modifications: SIGNAL (1)..(17)
notes: Gaussia luciferase mutant
B10: A42G Q152K S170S G174N Q175E K178S A182Y G183A: Gaussia luciferase mutant (protein)
chain: MGVKVLFALICIAVAEAKPTENNEDFNIVAVASNFATTDLDGDRGKLPGKKLPLEVLKEMEANARKAGCTRGCLICLSHIKCTPKMKKFIPGRCHTYEGDKESAQGGIGEAIVDIPEIPGFKDLEPMEQFIAQVDLCVDCTTGCLKGLANVKCSDLLKKWLPQRCATFASKIQNEVDSIKGYAGD
modifications: SIGNAL (1)..(17)
notes: Gaussia luciferase mutant
B11: Q152K Q163D S170N G174K Q175E K178T A182L G183A: Gaussia luciferase mutant (protein)
chain: B10 chain with G42A, Q163D, S170N, N174K, S178T, Y182L
modifications: SIGNAL (1)..(17)
notes: Gaussia luciferase mutant
B12: Q152H Q163S T167G S170V G174N G183A: Gaussia luciferase mutant (protein)
chain: B10 chain with G42A, K152H, Q163S, T167G, S170V, E175Q, S178K, Y182A
modifications: SIGNAL (1)..(17)
notes: Gaussia luciferase mutant
B13: Q152H Q163D T167S S170N A182L G183A: Gaussia luciferase mutant (protein)
chain: B10 chain with G42A, K152H, Q163D, T167S, S170N, N174G, E175Q, S178K, Y182L
modifications: SIGNAL (1)..(17)
notes: Gaussia luciferase mutant
B14: Q152H Q163T T167S S170D G174K K178N A182Y G183N: Gaussia luciferase mutant (protein)
chain: B10 chain with G42A, K152H, Q163T, T167S, S170D, N174K, E175Q, S178N, A183N
modifications: SIGNAL (1)..(17)
notes: Gaussia luciferase mutant
B15: N27D V29E A30G V31I A32V S33K A36I T37D L40T: Gaussia luciferase mutant (protein)
chain: MGVKVLFALICIAVAEAKPTENNEDFDIEGIVKNFIDTDTDADRGKLPGKKLPLEVLKEMEANARKAGCTRGCLICLSHIKCTPKMKKFIPGRCHTYEGDKESAQGGIGEAIVDIPEIPGFKDLEPMEQFIAQVDLCVDCTTGCLKGLANVQCSDLLKKWLPQRCATFASKIQGQVDKIKGAGGD
modifications: SIGNAL (1)..(17)
notes: Gaussia luciferase mutant
B16: N27D V29S V31L A32V S33G A36N T37D L40R: Gaussia luciferase mutant (protein)
chain: B15 chain with E29S, G30A, I31L, K33G, I36N, T40R
modifications: SIGNAL (1)..(17)
notes: Gaussia luciferase mutant

Assay: Luminescence activity assay of purified Gaussia luciferase mutants on coelenterazine derivative ZS2
Format: biochemical
Set-up: key to Activity of mutant relative to wild-type Gaussia luciferase without the signal peptide: ratio of mutant luminescence intensity to wild-type Gaussia luciferase
Conditions: Substrate ZS2 (Table 16)
Procedure: (§1) In this Example, the protein concentration was determined with a BCA quantitative kit (Thermo Scientific™ Pierce™ BCA Protein Assay Kit) accurately. The purified luciferase obtained in Example 5 was diluted with diluent (50 mM Tris-HCl, pH 8.0, 100 mM NaCl, 0.1% (v/v) Tween-20) to 1 μg/mL. The diluted luciferase, taken for 10 μL, was moved into a black 96-well plate, then added with 90 μL of the substrates coelenterazine, fluoro-coelenterazine or coelenterazine derivative ZS2 (purchased from Biolab) which was diluted into 100 μM with the same diluent, and the luminescence intensity of the plate was read with a self-luminescence module of a microplate reader. The mutation site of the mutant, the measured luminescence intensity, the ratio of luminescence intensities of the advantageous mutants to the wild-type Gaussia luciferase without the signal peptide having the sequence shown in SEQ ID NO: 3 are shown in Table 15. The results of catalytic activity assay of the advantageous mutants relative to the wild-type Gaussia luciferase without the signal peptide having the sequence shown in SEQ ID NO: 3 on substrate coelenterazine are shown in FIG. 6. […] The results of catalytic activity assay of the advantageous mutants relative to the wild-type Gaussia luciferase without the signal peptide having the sequence shown in SEQ ID NO: 3 on substrate fluoro-coelenterazine are shown in FIG. 7.
(§2) The new mutant library constructed in Example 7 was screened and tested for substrate specificity. Expression and purification schemes were the same as that in Example 5, and the activity assay scheme was the same as that in Example 6. The respective catalytic activities of combinatorial mutants on coelenterazine, fluoro-coelenterazine or coelenterazine derivative ZS2, and coelenterazine derivative ZS26 (purchased from BIOLAB) were assayed, and comparisons among the substrate specificities of the combinatorial mutants were based on the ratios of catalytic activities on two corresponding substrates.

Row | Activity of mutant relative to wild-type Gaussia luciferase without the signal peptide | Molecule
1 | 1.709 | B1
2 | 0.112 | B2
3 | 1.560 | B3
4 | 1.209 | B4
5 | 1.611 | B5
6 | 0.587 | B6
7 | 4.457 | B7
8 | 4.252 | B8
9 | 3.079 | B9
10 | 1.751 | B10
11 | 1.183 | B11
12 | 0.064 | B12
13 | 0.698 | B13
14 | 0.089 | B14
15 | 1.379 | B15
16 | 0.146 | B16

Assay: Luminescence activity assay of purified Gaussia luciferase mutants on coelenterazine
Format: biochemical
Set-up: key to Activity of mutant relative to wild-type Gaussia luciferase without the signal peptide: ratio of mutant luminescence intensity to wild-type Gaussia luciferase
Conditions: Substrate CTZ (Table 16)
Procedure: as §1, §2

Row | Activity of mutant relative to wild-type Gaussia luciferase without the signal peptide | Molecule
17 | 1.111 | B1
18 | 0.172 | B2
19 | 0.674 | B3
20 | 0.122 | B4
21 | 1.000 | B5
22 | 1.302 | B6
23 | 0.375 | B7
24 | 0.174 | B8
25 | 0.626 | B9
26 | 0.736 | B10
27 | 1.079 | B11
28 | 0.006 | B12
29 | 1.197 | B13
30 | 0.079 | B14
31 | 0.779 | B15
32 | 0.981 | B16

— patent US20250066745A1, “MUTANTS AND USE THEREOF” (BGI SHENZHEN, priority 2021, published 2025)
